Reference: US20230212319A1, “NOVEL ANTIGEN BINDING DOMAINS AND SYNTHETIC ANTIGEN RECEPTORS INCORPORATING THE SAME” (University of Southern California, priority 2020, published 2023)

test system: RAJI cells; experiment: JNG assay, co-culture with RAJI cells; format: cell-based; conditions: JNG cells expressing construct, co-culture with Raji
Procedure, shortened: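 Jurkat NFAT-GFP (JNG) cells stably transduced with SARs by lentivirus, with drug selection where the construct carried a resistance gene, then co-cultured with target cells at E:T ~1:2 for ~4–18 h. % GFP-positive cells measured by FACS against parental JNG; +/- to 5+ correspond to ~5–50% GFP-positive.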

| Molecule | NFAT-GFP ASSAY: Raji |
| --- | --- |
| 22194 (protein) MALPVTALLLPLALLLHAARPQLQLQESGPGLVKPSETLSLTCTVSGDSISSGDYYWGWIRQPPGKGLEWIGHIYYSGVTYYNPSLKSRVTISVDTSRNQFSLKLSSVTAADTAVYYCTREDSSNWRSRGQGTLVTVSSLEGQPKANPTVTLFPPSSEELQANKATLVCLISDFYPGAVTVAWKADGSPVKAGVETTKPSKQSNNKYAASSYLSLTPEQWKSHRSYSCQVTHEGSTVEKTVAPTECSPIKTDVITMDPKDNCSKDANDTLLLQLTNTSAYYMYLLLLLKSVVYFAIITCCLLRRTAFCCNGEKSRAKRSGSGATNFSLLKQAGDVEENPGPTSMDWIWRILFLVGAATGAHSFEYAKEMRNAYWEIALLPNLTNQQKRAPIRKLYDDPSQSSELLSEAKKLNDSQTRASTKGPSVFPLAPSSKSTSGGTAALGCLVKDYFPEPVTVSWNSGALTSGVHTFPAVLQSSGLYSLSSVVTVPSSSLGTQTYICNVNHKPSNTKVDKRVEPKSCEVKTDSTDHVKPKETENTKQPSKSCHKPKAIVHTEKVNMMSLTVLGLRMLFAKTVAVNFLLTAKLFFLRAKRSGSGVKQTLNFDLLKLAGDVESNPGPSRGHMTEYKPTVRLATRDDVPRAVRTLAAAFADYPATRHTVDPDRHIERVTELQELFLTRVGLDIGKVWVADDGAAVAVWTTPESVEAGAVFAEIGPRMAELSGSRLAAQQQMEGLLAPHRPKEPAWFLATVGVSPDHQGKGLGSAVVLPGVEAAERAGVPAFLETSAPRNLPFYERLGFTVTADVEVPEGPRTWCMTRKPGA | 4+ (refer to approximately 5%, 10%, 20%, 30%, 40% and 50% GFP positive cells) |
| 22219 (protein) MALPVTALLLPLALLLHAARPDIQMTQSPSSLSASVGDRVTITCKASDHINNWLAWYQQKPGQAPKLLIYGATTLETGVPSRFSGSGSGTDYTLTISSLQPEDFATYYCQQSWNTPWTFGQGTKLEIKRLEDLKNVFPPEVAVFEPSEAEISHTQKATLVCLATGFYPDHVELSWWVNGKEVHSGVCTDPQPLKEQPALNDSRYCLSSRLRVSATFWQNPRNHFRCQVQFYGLSENDEWTQDRAKPVTQIVSAEAWGRADCGFTSESYQQGVLSATILYEILLGKATLYAVLVSALVLMAMVKRKDSRGRAKRSGSGATNFSLLKQAGDVEENPGPTSATMDWIWRILFLVGAATGAHSGPSACPYSNPSLCSGSGGGGSGGGGSGGGGSFEQVQLQQPGAELVKPGASVKMSCKASGYAFSSYWINWMKQKPGQGLEWIGQIYPGDGDTNYNGKFKGRATLTADTSSSTAYMQLSSLTSEDSAVYFCARSITTVVGCAMDYWGQGTSVTVSSTRIQNPDPAVYQLRDSKSSDKSVCLFTDFDSQTNVSQSKDSDVYITDKCVLDMRSMDFKSNSAVAWSNKSDFACANAFNNSIIPEDTFFPSPESSCDVKLVEKSFETDTNLNFQNLSVIGFRILLLKVAGFNLLMTLRLWSSRAKRSGSGVKQTLNFDLLKLAGDVESNPGPSRGHMTEYKPTVRLATRDDVPRAVRTLAAAFADYPATRHTVDPDRHIERVTELQELFLTRVGLDIGKVWVADDGAAVAVWTTPESVEAGAVFAEIGPRMAELSGSRLAAQQQMEGLLAPHRPKEPAWFLATVGVSPDHQGKGLGSAVVLPGVEAAERAGVPAFLETSAPRNLPFYERLGFTVTADVEVPEGPRTWCMTRKPGA | Raji (+/-) (refer to approximately 5%, 10%, 20%, 30%, 40% and 50% GFP positive cells) |
| 22182 (protein) MALPVTALLLPLALLLHAARPACEVQLVESGGGVVQPGRSLRLSCAASGFSFSGYGMHWVRQAPGKGLEWVAYISYDGSNKYYADSVKGRFTISRDNSKNTLYLQMNSLRAEDTAVYYCAKDPAWGLRLGESSSYDFDYWGQGTMVTVSSGTGGGGSGGGGSGGGGSEFDIQMTQSPSSLSASVGDRVTITCKASDHINNWLAWYQQKPGQAPKLLIYGATTLETGVPSRFSGSGSGTDYTLTISSLQPEDFATYYCQQSWNTPWTFGQGTKLEIKRLEDLKNVFPPEVAVFEPSEAEISHTQKATLVCLATGFYPDHVELSWWVNGKEVHSGVCTDPQPLKEQPALNDSRYCLSSRLRVSATFWQNPRNHFRCQVQFYGLSENDEWTQDRAKPVTQIVSAEAWGRADCGFTSESYQQGVLSATILYEILLGKATLYAVLVSALVLMAMVKRKDSRGRAKRSGSGATNFSLLKQAGDVEENPGPTSMDWIWRILFLVGAATGAHSFEQVQLQQPGAELVKPGASVKMSCKASGYAFSSYWINWMKQKPGQGLEWIGQIYPGDGDTNYNGKFKGRATLTADTSSSTAYMQLSSLTSEDSAVYFCARSITTVVGCAMDYWGQGTSVTVSSTRIQNPDPAVYQLRDSKSSDKSVCLFTDFDSQTNVSQSKDSDVYITDKCVLDMRSMDFKSNSAVAWSNKSDFACANAFNNSIIPEDTFFPSPESSCDVKLVEKSFETDTNLNFQNLSVIGFRILLLKVAGFNLLMTLRLWSSRAKRSGSGVKQTLNFDLLKLAGDVESNPGPSRGHMTEYKPTVRLATRDDVPRAVRTLAAAFADYPATRHTVDPDRHIERVTELQELFLTRVGLDIGKVWVADDGAAVAVWTTPESVEAGAVFAEIGPRMAELSGSRLAAQQQMEGLLAPHRPKEPAWFLATVGVSPDHQGKGLGSAVVLPGVEAAERAGVPAFLETSAPRNLPFYERLGFTVTADVEVPEGPRTWCMTRKPGA | 5+ (refer to approximately 5%, 10%, 20%, 30%, 40% and 50% GFP positive cells) |
| 22183 (protein) MALPVTALLLPLALLLHAARPACQVQLQESGAGLLKPSETLSLTCAVYGGSFSAYNWNWIRQPPGKGLEWIGEINHRGDTAYNPSLKSRVTISVDTSKNQFSLNLTSVTAADTAVYYCAARGYSYGWPPGYISDAFDIWGQGTQVTVSSGTGGGGSGGGGSGGGGSEFDIQMTQSPSSLSASVGDRVTITCKASDHINNWLAWYQQKPGQAPKLLIYGATTLETGVPSRFSGSGSGTDYTLTISSLQPEDFATYYCQQSWNTPWTFGQGTKLEIKRLEDLKNVFPPEVAVFEPSEAEISHTQKATLVCLATGFYPDHVELSWWVNGKEVHSGVCTDPQPLKEQPALNDSRYCLSSRLRVSATFWQNPRNHFRCQVQFYGLSENDEWTQDRAKPVTQIVSAEAWGRADCGFTSESYQQGVLSATILYEILLGKATLYAVLVSALVLMAMVKRKDSRGRAKRSGSGATNFSLLKQAGDVEENPGPTSMDWIWRILFLVGAATGAHSFEQVQLQQPGAELVKPGASVKMSCKASGYAFSSYWINWMKQKPGQGLEWIGQIYPGDGDTNYNGKFKGRATLTADTSSSTAYMQLSSLTSEDSAVYFCARSITTVVGCAMDYWGQGTSVTVSSTRIQNPDPAVYQLRDSKSSDKSVCLFTDFDSQTNVSQSKDSDVYITDKCVLDMRSMDFKSNSAVAWSNKSDFACANAFNNSIIPEDTFFPSPESSCDVKLVEKSFETDTNLNFQNLSVIGFRILLLKVAGFNLLMTLRLWSSRAKRSGSGVKQTLNFDLLKLAGDVESNPGPSRGHMTEYKPTVRLATRDDVPRAVRTLAAAFADYPATRHTVDPDRHIERVTELQELFLTRVGLDIGKVWVADDGAAVAVWTTPESVEAGAVFAEIGPRMAELSGSRLAAQQQMEGLLAPHRPKEPAWFLATVGVSPDHQGKGLGSAVVLPGVEAAERAGVPAFLETSAPRNLPFYERLGFTVTADVEVPEGPRTWCMTRKPGA | 5+ (refer to approximately 5%, 10%, 20%, 30%, 40% and 50% GFP positive cells) |
| 22218 (protein) MALPVTALLLPLALLLHAARPACQDKLTQWPKWLEGTGGGGSGGGGSGGGGSEFDIQMTQSPSSLSASVGDRVTITCKASDHINNWLAWYQQKPGQAPKLLIYGATTLETGVPSRFSGSGSGTDYTLTISSLQPEDFATYYCQQSWNTPWTFGQGTKLEIKRLEDLKNVFPPEVAVFEPSKAEIAHTQKATLVCLATGFYPDHVELSWWVNGKEVHSGVCTDPQPLKEQPALNDSRYCLSSRLRVSATFWQNPRNHFRCQVQFYGLSENDEWTQDRAKPVTQIVSAEAWGRADCGITSASYHQGVLSATILYEILLGKATLYAVLVSALVLMAMVKRKDSRGRAKRSGSGATNFSLLKQAGDVEENPGPTSATMDWIWRILFLVGAATGAHSGPQVQLQESGGGLAQAGGSLRLSCAASGRTFSMGWFRQAPGKEREFVAAITYSGGSPYYASSVRGRFTISRDNAKNTVYLQMNSLKPEDTAVYYCAANPTYGSDWNAENWGQGTQVTVSSGSGGGGSGGGGSGGGGSFEQVQLQQPGAELVKPGASVKMSCKASGYAFSSYWINWMKQKPGQGLEWIGQIYPGDGDTNYNGKFKGRATLTADTSSSTAYMQLSSLTSEDSAVYFCARSITTVVGCAMDYWGQGTSVTVSSTRIQNPDPAVYQLRDSKSSDKSVCLFTDFDSQTNVSQSKDSDVYITDKCVLDMRSMDFKSNSAVAWSNKSDFACANAFNNSIIPEDTFFPSSDVPCDVKLVEKSFETDTNLNFQNLSVIGFRILLLKVAGFNLLMTLRLWSSRAKRSGSGVKQTLNFDLLKLAGDVESNPGPSRGHMTEYKPTVRLATRDDVPRAVRTLAAAFADYPATRHTVDPDRHIERVTELQELFLTRVGLDIGKVWVADDGAAVAVWTTPESVEAGAVFAEIGPRMAELSGSRLAAQQQMEGLLAPHRPKEPAWFLATVGVSPDHQGKGLGSAVVLPGVEAAERAGVPAFLETSAPRNLPFYERLGFTVTADVEVPEGPRTWCMTRKPGA | Raji (3+) (refer to approximately 5%, 10%, 20%, 30%, 40% and 50% GFP positive cells) |
| 22155 (protein) MALPVTALLLPLALLLHAARPACEVQLLESGGGLIQPGGSLRLSCAASGFTFSSHAMTWVRQAPGKGLEWVSAISGSGDYTHYADSVKGRFTISRDNSKNTVYLQMNSLRAEDSAVYYCAKDEDGGSLLGHRGQGTLVTVSSGTGGGGSGGGGSGGGGSEFSYVLTQPPSVSVAPGQTARITCGGNNIGGKSVHWYQQPPGQAPVVVVYDDSDRPSGIPERFSGSNSGNTATLTISRVEAGDEAVYYCQVWDSSSDHVVFGGGTKLTVLLEADVSPKPTIFLPSIAETKLQKAGTYLCLLEKFFPDVIKIHWQEKKSNTILGSQEGNTMKTNDTYMKFSWLTVPEKSLDKEHRCIVRHENNKNGVDQEIIFPPIKTDVITMDPKDNCSKDANDTLLLQLTNTSAYYMYLLLLLKSVVYFAIITCCLLRRTAFCCNGEKSRAKRSGSGATNFSLLKQAGDVEENPGPTSMDWIWRILFLVGAATGAHSGPQVQLQESGGGLAQAGGSLRLSCAASGRTFSMGWFRQAPGKEREFVAAITYSGGSPYYASSVRGRFTISRDNAKNTVYLQMNSLKPEDTAVYYCAANPTYGSDWNAENWGQGTQVTVSSGSGGGGSGGGGSGGGGSFEQLQLQESGPGLVKPSETLSLTCTVSGGSISSSSYFWGWIRQPPGKGLEWIGSIYYSGITYYNPSLKSRVTISVDTSKNQFSLKLSSVTAADTAVYYCARHDGAVAGLFDYWGQGTLVTVSSATRPHTKPSVFVMKNGTNVACLVKEFYPKDIRINLVSSKKITEFDPAIVISPSGKYNAVKLGKYEDSNSVTCSVQHDNKTVHSTDFEVKTDSTDHVKPKETENTKQPSKSCHKPKAIVHTEKVNMMSLTVLGLRMLFAKTVAVNFLLTAKLFFLRAKRSGSGVKQTLNFDLLKLAGDVESNPGPSRGHMTEYKPTVRLATRDDVPRAVRTLAAAFADYPATRHTVDPDRHIERVTELQELFLTRVGLDIGKVWVADDGAAVAVWTTPESVEAGAVFAEIGPRMAELSGSRLAAQQQMEGLLAPHRPKEPAWFLATVGVSPDHQGKGLGSAVVLPGVEAAERAGVPAFLETSAPRNLPFYERLGFTVTADVEVPEGPRTWCMTRKPGA | 2+ (refer to approximately 5%, 10%, 20%, 30%, 40% and 50% GFP positive cells) |
